Laboratory results from the supplement of paper PMC7877785.
± gives the uncertainty stated by the source.

Assay: self-splicing fitness, log relative to wild type (ln ratio); higher = more splicing; Tetrahymena group I intron in knt gene, E. coli kanamycin selection, DiMSum; sequences stand for … in CUCUCU…GGAGGGAAAAGUUAUCAGGCAUGCACCUGGUAGCUAGUCUUUAAACCAAUAGAUUGCAUCGGUUUAAAAGGCAAGACCGUCAAAUUGCGGGAAAGGGGUCAACAGCCGUUCAGUACCAAGUCUCAGGGGAAACUUUGAGAUGGCCUUGCAAAGGGUAUGGUAAUAAGCUGACGGACAUGGUCCUAACCACGCAGCCAAGUCCUAAGUCAACAGAUCUUCUGUUGAUAUGGAUGCAGUUCACAGACUAAAUGUCGGUCGGGGAAGAUGUAUUCUUCUCAUAAGAUAUAGUCGGACCUCUCCUUAAUGGGAGCUAGCGGAUGAAGUGAUGCAACACUGGAGCCGCUGGGAACUAAUUUGUAUGCGAAAGUAUAUUGAUUAGUUUUGGAGUACUCGUGGUCG
Method in brief: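 Six replicate transformations of E. coli BL21(DE3) with a pET-22b(+) library were grown overnight at 37°C or 30°C. The library randomised all eight P1ex-region intron nucleotides, the intron lying in the knt kanamycin-resistance gene, and plates were LB agar with or without 25 μg/mL kanamycin plus 100 μg/mL carbenicillin, 50 μM IPTG and 0.2% rhamnose. Pooled colonies were amplicon-sequenced on an Illumina HiSeq 2500, and fitness is the DiMSum error-weighted combination of wild-type-normalised replicate fold changes, kanamycin versus none.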

Sequence | self-splicing fitness (ln) (30 °C) | self-splicing fitness (ln) (37 °C)
UGCCAGCAAUAUUACGUAGG | -3.34 ± 0.25 | -0.145 ± 0.17
ACAGAGCAAUAUUACGAGAG | – | -2.6 ± 0.28
GCUGAGCAAUAUUACGCCGU | – | -0.103 ± 0.24
AAACAGCAAUAUUACGGUUC | -2.65 ± 0.078 | -2.6 ± 0.12
GCGUAGCAAUAUUACGCCUU | -3.7 ± 0.33 | -1.3 ± 0.21
UAGCAGCAAUAUUACGCGGC | -3.84 ± 0.22 | -1.6 ± 0.21
GAGCAGCAAUAUUACGCUCA | -2.14 ± 0.2 | -1.91 ± 0.16
UUCUAGCAAUAUUACGCGCA | -0.451 ± 0.088 | -0.191 ± 0.097
UAUCAGCAAUAUUACGUAAC | -1.48 ± 0.14 | -0.246 ± 0.16
AUAUAGCAAUAUUACGACGG | -2.5 ± 0.17 | -2.5 ± 0.22
ACUCAGCAAUAUUACGACUG | -3.86 ± 0.23 | -1.47 ± 0.14
AGACAGCAAUAUUACGAGGC | -3.34 ± 0.23 | -2.82 ± 0.3
AUGUAGCAAUAUUACGAGGU | -2.28 ± 0.19 | -1.84 ± 0.23
GAGAAGCAAUAUUACGAGGG | -3.49 ± 0.17 | -2.99 ± 0.19
AGGAAGCAAUAUUACGACGA | -0.678 ± 0.092 | -0.0243 ± 0.13
CUUGAGCAAUAUUACGUCUA | -2.76 ± 0.46 | –
GGCAAGCAAUAUUACGAGAC | -0.681 ± 0.14 | -1.2 ± 0.23
GGCGAGCAAUAUUACGCAGA | -3.15 ± 0.4 | -2.31 ± 0.23
CAUUAGCAAUAUUACGCACG | -0.832 ± 0.12 | 0.325 ± 0.14
UGGUAGCAAUAUUACGUAUU | -3.07 ± 0.14 | -1.84 ± 0.17

Sequence | self-splicing fitness (ln) (30 °C) | self-splicing fitness (ln) (37 °C)
UACGAGCAAUAUUACGGGUC | -3.23 ± 0.26 | -3.06 ± 0.43
UCCCAGCAAUAUUACGCUCU | -2.77 ± 0.16 | -1.7 ± 0.17
GUUAAGCAAUAUUACGGUUA | -1.33 ± 0.096 | -0.554 ± 0.096
CAGCAGCAAUAUUACGAGAC | -3.94 ± 0.36 | -2.21 ± 0.26
AGCAAGCAAUAUUACGGGAC | -3.76 ± 0.33 | -2.24 ± 0.29
UUCAAGCAAUAUUACGCGUA | -1.17 ± 0.14 | -0.0781 ± 0.1
UGCGAGCAAUAUUACGUGUU | -3.58 ± 0.43 | -2.47 ± 0.32
GUUGAGCAAUAUUACGCAGC | -2.23 ± 0.35 | –
UUAAAGCAAUAUUACGCGCA | -0.137 ± 0.072 | -0.0874 ± 0.1
CACGAGCAAUAUUACGGAGA | -3.38 ± 0.2 | -2.85 ± 0.25
AUGUAGCAAUAUUACGGUUG | -3.62 ± 0.2 | -1.99 ± 0.19
UCCGAGCAAUAUUACGGUGG | -2.76 ± 0.14 | -2.31 ± 0.2
AACGAGCAAUAUUACGCGGA | -2.97 ± 0.2 | -2.01 ± 0.2
CAGCAGCAAUAUUACGCUAC | -3.65 ± 0.38 | -2.81 ± 0.38
GCCAAGCAAUAUUACGCUUG | -3.72 ± 0.12 | -2.41 ± 0.14
AUUUAGCAAUAUUACGCCAU | -0.966 ± 0.27 | 0.446 ± 0.24
CAAGAGCAAUAUUACGUCAU | -4.3 ± 0.24 | -3.57 ± 0.17
UAAAAGCAAUAUUACGCGCC | -1.76 ± 0.2 | -0.751 ± 0.24
CUUUAGCAAUAUUACGAUAA | -2.76 ± 0.15 | -2.64 ± 0.28
